Our source for the Kd values is patent publication US20230133775A1 (University of California, published 2023).

This test deals with T1, Leucine-rich repeat-containing protein 15 (LRRC15) on LRRC15-expressing cells (UniProt Q8TF66 22-581, limits assumed).
T1 construct: whole, on cells; also called leucine-rich repeat containing 15
T1 sequence (looked up): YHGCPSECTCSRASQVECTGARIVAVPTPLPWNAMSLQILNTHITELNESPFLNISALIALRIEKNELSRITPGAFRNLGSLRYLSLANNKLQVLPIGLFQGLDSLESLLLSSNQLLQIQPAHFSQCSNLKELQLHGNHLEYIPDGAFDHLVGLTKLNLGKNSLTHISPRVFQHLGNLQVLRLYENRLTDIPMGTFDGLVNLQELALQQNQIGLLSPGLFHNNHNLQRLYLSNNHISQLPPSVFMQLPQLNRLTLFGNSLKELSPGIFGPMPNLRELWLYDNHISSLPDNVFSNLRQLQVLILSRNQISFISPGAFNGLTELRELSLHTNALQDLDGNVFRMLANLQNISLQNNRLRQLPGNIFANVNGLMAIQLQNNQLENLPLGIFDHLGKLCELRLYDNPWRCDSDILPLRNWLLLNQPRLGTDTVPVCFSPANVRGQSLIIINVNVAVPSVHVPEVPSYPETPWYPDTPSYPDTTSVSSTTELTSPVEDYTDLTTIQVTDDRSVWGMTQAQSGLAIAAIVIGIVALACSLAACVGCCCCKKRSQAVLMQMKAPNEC
The experiment in a line: LigandTracer, radiolabeled antibody on live target cells. The protocol: DUNP 19 was developed by humanization of a hybridoma mAb generated from immunizing mice with stably transfected LRRC15-expressing 3T3 cells. […] Liquid chromatography-mass spectrometry (LC-MS) analysis of DUNP19 incubated with LRRC15-expressing cell lines confirmed molecular binding specificity. […] LigandTracer (Ridgeview Instruments) was utilized to assess binding interaction between live cells and Lutetium-177 labeled DUNP19 ([¹⁷⁷Lu]DUNP19). […] Internalization rate was studied by quantifying emitted fluorescence over time from SAOS2 cells incubated with pH-responsive dye-labeled DUNP19. Identification of colocalization of Alexa-488 labeled DUNP19 with intracellular markers (DAPI and LAMP1) in SAOS2 cells over time was applied to further confirm time of internalization.

B1: Lutetium-177 labeled DUNP19 ([177Lu]DUNP19) (antibody, V domains shown)
VH: QVQLVQSGAEVKKPGASVKVSCKASGYTFTDYYIHWVRQAPGQGLEWMGWINPNSDGTNYAQNFLGRVTMTRDTSISTAYMELSRLRSDDSAVYHCVREGRYSTSPFDYWGQGTLVTVSS
VL: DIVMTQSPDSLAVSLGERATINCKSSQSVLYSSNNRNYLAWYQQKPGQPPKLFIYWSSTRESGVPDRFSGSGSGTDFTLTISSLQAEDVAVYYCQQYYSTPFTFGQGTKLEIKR
notes: also called 177Lu-DOTA-DUNP19
For orientation: Kd means the free concentration of one partner at which half of the binding sites on the other are occupied at equilibrium, for simple one-to-one binding. Read a low Kd as a tighter complex. In the case of B1, binding was characterised by a dissociation constant (Kd) of 0.329 nM.
